The record followed here is PMC7210945, “The pivot point arginines identified in the β-pinwheel structure of C-terminal domain from Salmonella Typhi DNA Gyrase A subunit”.

The target in data set [1] is StGyrA-CTD R667A R667A (Salmonella enterica serovar Typhi CT18) (UniProt A0A1U7FVV6). The data set is described as follows: fluorescence binding.
Data set [2] deals with StGyrA-CTD R712A R712A (Salmonella enterica serovar Typhi CT18) (UniProt A0A1U7FVV6). The data set is described as follows: fluorescence binding.
Data set [3] concerns the target StGyrA-CTD R716A R716A (Salmonella enterica serovar Typhi CT18) (UniProt A0A1U7FVV6). The experiment in a line: fluorescence binding.
Data set [4] addresses StGyrA-CTD R766A R766A (Salmonella enterica serovar Typhi CT18) (UniProt A0A1U7FVV6). The data set is described as follows: fluorescence binding.
Data set [5] concerns the target StGyrA-CTD R817A R817A (Salmonella enterica serovar Typhi CT18) (UniProt A0A1U7FVV6). The data set is described as follows: fluorescence binding.
Data set [6] concerns the target Salmonella enterica serovar Typhi DNA Gyrase A C-terminal domain (StGyrA-CTD) (Salmonella enterica serovar Typhi (CT18 strain)). The data set is described as follows: SEC. On the technique in general: In gel filtration, larger molecules generally elute earlier.
Data set [7] has as its target StGyrA-CTD D692A (Salmonella enterica serovar Typhi CT18, UniProt A0A1U7FVV6 530-840, D692A). The data set is described as follows: fluorescence binding; 1 mM Mg2+. The conditions noted are these: protein: recombinant; tags: C-terminal 6xHis; blunt.
The target in data set [8] is StGyrA-CTD wild type (Salmonella enterica serovar Typhi CT18, UniProt A0A1U7FVV6 530-840). The experiment in a line: fluorescence binding; 1 mM Mg2+. Particulars: protein: recombinant; tags: C-terminal 6xHis (pET-28a); chain copies: 2; blunt.
Data set [9] addresses StGyrA-CTD R612A (Salmonella enterica serovar Typhi CT18, UniProt A0A1U7FVV6 530-840, R612A). The experiment in a line: fluorescence binding; 1 mM Mg2+; text gives 220-250 nM for other mutants. Particulars: protein: recombinant; tags: C-terminal 6xHis; blunt.

By Kd is commonly meant a measure of binding affinity in units of concentration. A word on the stoichiometry N: it is the number of molecules, sites or subunits per partner or assembly.

As for “TAAAGTCTAGAGACACGCATAGTCAATGACGGAGTTA (double strand) [FAM-37 bp DNA]”, the dissociation constant Kd is 263 nM in data set [1]; 231 nM in data set [2]; 277 nM in data set [3]; 221 nM in [4]; 204 nM in [5].
“Salmonella enterica serovar Typhi DNA Gyrase A C-terminal domain (StGyrA-CTD) (domain or fragment)” had a stoichiometry N in data set [6] of 2.

B1: FAM-37 bp DNA (dsDNA)
DNA 1: TAAAGTCTAGAGACACGCATAGTCAATGACGGAGTTA
DNA 2: TAACTCCGTCATTGACTATGCGTGTCTCTAGACTTTA
Take B1: the dissociation constant (Kd) in data set [7] was determined as 129 nM; in data set [8], 122 nM; in data set [9], 135 nM.
